Source: US20180037644A1 (Pfizer, published 2018)
Like-named read-outs stand apart in the source and are kept apart here.

T1: human IL-33 (mm2) (human, UniProt O95760 112-270)
T1 chain: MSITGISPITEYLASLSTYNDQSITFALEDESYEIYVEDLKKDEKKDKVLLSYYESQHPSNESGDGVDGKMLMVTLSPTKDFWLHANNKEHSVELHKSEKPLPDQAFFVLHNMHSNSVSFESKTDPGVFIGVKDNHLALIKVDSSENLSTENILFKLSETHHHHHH

T2: native human IL-33 from human lung fibroblast (HFL-1) lysate (human, UniProt O95760 1-270, limits assumed)
T2 sequence (looked up): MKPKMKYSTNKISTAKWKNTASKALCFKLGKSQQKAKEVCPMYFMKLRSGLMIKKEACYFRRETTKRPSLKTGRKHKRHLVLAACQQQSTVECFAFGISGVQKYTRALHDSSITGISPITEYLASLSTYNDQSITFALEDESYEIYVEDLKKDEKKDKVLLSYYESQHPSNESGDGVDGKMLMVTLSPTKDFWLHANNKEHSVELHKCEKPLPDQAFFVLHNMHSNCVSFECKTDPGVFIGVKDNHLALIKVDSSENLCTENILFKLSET

T3: cynomolgus monkey IL-33 (cys mut) (cynomolgus monkey)
T3 chain: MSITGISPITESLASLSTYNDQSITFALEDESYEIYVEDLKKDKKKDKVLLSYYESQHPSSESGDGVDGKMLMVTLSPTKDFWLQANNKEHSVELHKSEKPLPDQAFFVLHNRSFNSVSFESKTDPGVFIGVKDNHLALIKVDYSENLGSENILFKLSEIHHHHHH


Experiments:
human IL-33 (mm2) [1] = target: T1, human IL-33 (mm2); assay: cell-based or functional assay
[2] = target: T2, native human IL-33 from human lung …; assay: cell-based or functional assay
[3] = target: T3, cynomolgus monkey IL-33 (cys mut); assay: cell-based or functional assay
human IL-33 (mm2) [4] = target: T1, human IL-33 (mm2); assay: SPR, IgG captured by anti-human Fc, IL-33 in solution
Description: (§1) Binding to human and cynomolgus monkey IL-33 was measured by surface plasmon resonance using a BIAcore T200 instrument. An anti-human Fc antibody was immobilized on a CM5 chip, and anti-IL-33 antibodies were captured.

[5] = target: T3, cynomolgus monkey IL-33 (cys mut); assay: as above
Description: as §1

human IL-33 (mm2) [6] = target: T1, human IL-33 (mm2); assay: cell-based or functional assay
human IL-33 (mm2) [7] = target: T1, human IL-33 (mm2); assay: BIAcore, IgG captured by anti-human Fc, 125 nM IL-33 (mm2)
Description: as §1

human IL-33 (mm2) [8] = target: T1, human IL-33 (mm2); assay: cell-based or functional assay
[9] = target: T3, cynomolgus monkey IL-33 (cys mut); assay: cell-based or functional assay

| IC50, HEK293 ST2 NFkB (human IL-33 (mm2) [1]) [nM] | % inhibition 0.1 nM Ab, HEK293 ST2 NFkB [2] [%] | % inhibition 1 nM Ab, HEK293 ST2 NFkB [2] [%] | % inhibition 10 nM Ab, HEK293 ST2 NFkB [2] [%] | % inhibition at 20 nM, HEK293 ST2 NFkB [3] [%] | Kd (human IL-33 (mm2) [4]) [nM] | binding result [5] | Kd [5] [nM] | estimated IC50, HEK293 ST2 NFkB (human IL-33 (mm2) [6]) [nM] | koff (human IL-33 (mm2) [7]) [s⁻¹] | IC50, HEK293 ST2 NFkB (human IL-33 (mm2) [8]) [nM] | IC50, HEK293 ST2 NFkB [3] [nM] | IC50, HEK293 ST2 NFkB [9] [nM] | Binder |
| --- | --- | --- | --- | --- | --- | --- | --- | --- | --- | --- | --- | --- | --- |
| 2.03 | 61.1 | 99.6 | 107 | 11 | 0.394 | no binding (tested: 125 nM) | – | – | – | – | – | – | 14D8 chimera/hu J (antibody, human IgG1, kappa, V domains shown, also called 14D8 huJseg) VH: EVQLVDSGGDQVQPGRSLKLSCVASGFIFKNYWMTWIRQVPGKGLEWIASITNSGGNTYYPDSVKGRFTISRDNAKDTLYLQMNSLRSEDTATYYCARDRRYNSGSPFAYWGQGTLVTVSS VL: DIQLTQSPSTLPASLGERVTISCRTSQSINNNLCWYQQKPDGTVKRLIYSTSTLESGVPSRFSGSGSGTDYSLSISSLESQDFAMYYCLQYATYPWTFGQGTKVEIKR |
| 2.71 | 44.3 | 82.6 | 104 | 3.6 | 0.408 | no binding (tested: 125 nM) | – | – | – | – | – | – | 12F9 chimera (antibody, human IgG1, kappa, V domains shown, also called chimeric 12F9) VH: EVQLVESGGDLVQPGRSLKLSCVTSGFIFKNYWMTWIRQVPGKGLEWVASITNTGGATYYPDSVKGRFTISRDNSENTLYLQMNSLRSEDTATYYCARDRRYNSGSPFAYWGQGTLVTVSS VL: DIQLTQSPSTLAASLGERVTISCRASQSISNSLIWFQQKPDGTIKRLIYSSSTLESGVPSRFSGSGSGTDYSLSISSLESEDFAMYYCLQYATYPWTFGGGTKLELRR |
| – | 52.5 | 96 | 111 | 35 | 0.457 | – | 0.836 | – | – | – | – | – | 9B3 chimera (antibody, human IgG1, kappa, also called chimeric 9B3) heavy: EVQLVETGGGLVQPGRSLKLSCVASGFTFSNYWMYWIRQAPGMGLEWVSSINNDGGNTYYLDSVKGRFTISRNNAENTVYLQMNSLRSEDTATYYCAKGHYSYSSYSFSYWGQGTLVTVSSASTKGPSVFPLAPSSKSTSGGTAALGCLVKDYFPEPVTVSWNSGALTSGVHTFPAVLQSSGLYSLSSVVTVPSSSLGTQTYICNVNHKPSNTKVDKKVEPKSCDKTHTCPPCPAPEAAGAPSVFLFPPKPKDTLMISRTPEVTCVVVDVSHEDPEVKFNWYVDGVEVHNAKTKPREEQYNSTYRVVSVLTVLHQDWLNGKEYKCKVSNKALPAPIEKTISKAKGQPREPQVYTLPPSREEMTKNQVSLTCLVKGFYPSDIAVEWESNGQPENNYKTTPPVLDSDGSFFLYSKLTVDKSRWQQGNVFSCSVMHEALHNHYTQKSLSLSPGK light: DIQMTQSPSVLSASVGDRVTLSCKASHNINKHLDWCQQKVGEAPKLLIYFTNNLQTGIPSRFSGSGSGTDYTLTISSLQPEDVATYFCFQYNSGWTFGGGTKLELKRTVAAPSVFIFPPSDEQLKSGTASVVCLLNNFYPREAKVQWKVDNALQSGNSQESVTEQDSKDSTYSLSSTLTLSKADYEKHKVYACEVTHQGLSSPVTKSFNRGEC |
| 0.056 | – | – | – | – | – | – | – | 0.061 | 0.000451 | 0.264 | – | – | 9B3 chimera/hu J (antibody, human IgG1, kappa, also called 9B3 chimera huJseg) heavy: EVQLVETGGGLVQPGRSLKLSCVASGFTFSNYWMYWIRQAPGMGLEWVSSINNDGGNTYYLDSVKGRFTISRNNAENTVYLQMNSLRSEDTATYYCAKGHYSYSSYSFSYWGQGTLVTVSSASTKGPSVFPLAPSSKSTSGGTAALGCLVKDYFPEPVTVSWNSGALTSGVHTFPAVLQSSGLYSLSSVVTVPSSSLGTQTYICNVNHKPSNTKVDKKVEPKSCDKTHTCPPCPAPEAAGAPSVFLFPPKPKDTLMISRTPEVTCVVVDVSHEDPEVKFNWYVDGVEVHNAKTKPREEQYNSTYRVVSVLTVLHQDWLNGKEYKCKVSNKALPAPIEKTISKAKGQPREPQVYTLPPSREEMTKNQVSLTCLVKGFYPSDIAVEWESNGQPENNYKTTPPVLDSDGSFFLYSKLTVDKSRWQQGNVFSCSVMHEALHNHYTQKSLSLSPGK light: DIQMTQSPSVLSASVGDRVTLSCKASHNINKHLDWCQQKVGEAPKLLIYFTNNLQTGIPSRFSGSGSGTDYTLTISSLQPEDVATYFCFQYNSGWTFGQGTKVEIKRTVAAPSVFIFPPSDEQLKSGTASVVCLLNNFYPREAKVQWKVDNALQSGNSQESVTEQDSKDSTYSLSSTLTLSKADYEKHKVYACEVTHQGLSSPVTKSFNRGEC |
| 0.028 | 102 | 109 | 110 | – | 0.367 | – | 0.148 | – | – | – | 0.11 | – | 30B11 chimera/hu J (antibody, human IgG1, kappa, V domains shown, also called 30B11 hu Jseg) VH: QVKLLQSGAALVKPGASVKMSCATSGFSFTDYWVSWVKQSHGKGLEWIGEIYPNSGADNFNENFKGKATLTVDKSTSTAYMELSRLTSEDSAIYYCTRGPYYYSTQIIFAYWGQGTLVTVSS VL: NIVMTQSPKSMSISVGDRVTMNCKASQNVGNNLAWYQQKPGQSPKLLIYYASNRYTGVPDRFTGGGYGTDFTLTINSVQAEDAAFYYCQRIYNSPPTFGGGTKVEIKR |
| – | 63.8 | 98.5 | 107 | – | 0.54 | – | 0.197 | – | – | – | – | – | 30A1 chimera/hu J (antibody, human IgG1, kappa, also called 30A1 hu Jseg) heavy: QVNLLQSGATLVKPGASMKMSCKASGYSFTDYWVSWVKQSHGKSLEWIGEIYPNSGANNFNKEFKDKATLTVDKSTSTAYMELTRLTSEDSAVYYCTRGPYYYSSQIIFAYWGQGTLVTVSSASTKGPSVFPLAPSSKSTSGGTAALGCLVKDYFPEPVTVSWNSGALTSGVHTFPAVLQSSGLYSLSSVVTVPSSSLGTQTYICNVNHKPSNTKVDKKVEPKSCDKTHTCPPCPAPEAAGAPSVFLFPPKPKDTLMISRTPEVTCVVVDVSHEDPEVKFNWYVDGVEVHNAKTKPREEQYNSTYRVVSVLTVLHQDWLNGKEYKCKVSNKALPAPIEKTISKAKGQPREPQVYTLPPSREEMTKNQVSLTCLVKGFYPSDIAVEWESNGQPENNYKTTPPVLDSDGSFFLYSKLTVDKSRWQQGNVFSCSVMHEALHNHYTQKSLSLSPGK light: IIVMTQSPKSMSISVGDRVTMNCKASQNVGNNIAWYRQKPGQSPELLIYYASNRYTGVPDRFTGGGYGTDFTLTINSVQAEDAAFYYCQRIYNSPPTFGGGTKVEIKRTVAAPSVFIFPPSDEQLKSGTASVVCLLNNFYPREAKVQWKVDNALQSGNSQESVTEQDSKDSTYSLSSTLTLSKADYEKHKVYACEVTHQGLSSPVTKSFNRGEC |
| – | – | – | – | – | – | – | – | – | – | 0.09 | – | 0.204 | IL33-11 (antibody, human IgG1, kappa, V domains shown) VH: EVQLVESGGGLVQPGGSLRLSCAASGFTFSNYWMYWVRQAPGKGLEWVASITPNGGNTYYPDSVKGRFTISRDNAKNSLYLQMNSLRAEDTAVYYCARGHYYYTSYSLGYWGQGTLVTVSS VL: DIQMTQSPSSLSASVGDRVTITCKASQNINKHLDWYQQKPGKAPKLLIYFTNNLQTGVPSRFSGSGSGTDFTLTISSLQPEDFATYYCFQYNNGWTFGGGTKVEIKR |
| – | – | – | – | – | – | – | – | – | – | 0.22 | – | 7.65 | IL33-13 (antibody, human IgG1, kappa, V domains shown) VH: EVQLVESGGGLVQPGGSLRLSCAASGFTFSSYWMYWVRQAPGKGLEWVASITPNGGNTYYPDSVKGRFTISRDNAKNSLYLQMNSLRAEDTAVYYCARGHYSYSSYSFSYWGQGTLVTVSS VL: DIQMTQSPSSLSASVGDRVTITCKASQNINKHLDWYQQKPGKAPKLLIYFTNNLQTGVPSRFSGSGSGTDFTLTISSLQPEDFATYYCFQYNNGWTFGGGTKVEIKR |
